Target: IL-12 receptor on HEK-Blue IL-12 cells (InvivoGen) (human) (UniProt P42701)
Test: cell-based or functional assay

Chain of IL-12 receptor on HEK-Blue IL-12 cells (InvivoGen) (human) (chain, as listed by the source limits assumed, chain 2 of 2, other chains not shown): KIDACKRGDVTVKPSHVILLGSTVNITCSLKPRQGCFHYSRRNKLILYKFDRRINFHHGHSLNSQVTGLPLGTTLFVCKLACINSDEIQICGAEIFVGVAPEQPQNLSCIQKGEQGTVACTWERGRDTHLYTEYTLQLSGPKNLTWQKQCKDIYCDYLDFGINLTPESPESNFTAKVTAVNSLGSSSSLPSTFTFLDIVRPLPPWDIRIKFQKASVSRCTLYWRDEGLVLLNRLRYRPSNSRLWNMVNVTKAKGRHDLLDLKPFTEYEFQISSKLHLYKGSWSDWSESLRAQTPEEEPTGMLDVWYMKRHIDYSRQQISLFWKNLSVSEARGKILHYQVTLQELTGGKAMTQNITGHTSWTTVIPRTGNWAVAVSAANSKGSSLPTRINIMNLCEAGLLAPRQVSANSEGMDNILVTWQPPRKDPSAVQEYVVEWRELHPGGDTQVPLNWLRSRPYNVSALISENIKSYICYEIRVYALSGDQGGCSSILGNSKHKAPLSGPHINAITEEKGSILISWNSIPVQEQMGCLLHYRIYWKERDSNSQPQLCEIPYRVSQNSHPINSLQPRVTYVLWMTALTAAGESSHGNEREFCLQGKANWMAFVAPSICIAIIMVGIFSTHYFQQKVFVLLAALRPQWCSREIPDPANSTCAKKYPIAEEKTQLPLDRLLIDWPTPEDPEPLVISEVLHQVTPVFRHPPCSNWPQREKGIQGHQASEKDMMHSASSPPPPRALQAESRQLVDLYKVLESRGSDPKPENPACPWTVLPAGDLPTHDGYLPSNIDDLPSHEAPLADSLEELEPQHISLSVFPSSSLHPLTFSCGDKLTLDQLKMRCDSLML

IL-12 Fc double mutant Y40A/D126A (format of Example 1) (from UniProt P29459 23-219; P29460 23-328) (Fc fusion)
HEK-Blue IL-12 reporter assay, fold reduction in potency (fold (vs IL-12 Fc w.t.)): 38

IL-12 Fc double mutant Y40A/K168A (Example 7) (from UniProt P29459 23-219; P29460 23-328) (Fc fusion)
HEK-Blue IL-12 reporter assay, fold reduction in EC50 value (fold (vs wild-type)): 67

IL-12 Fc double mutant Y40A/K170A (Example 7) (from UniProt P29459 23-219; P29460 23-328) (Fc fusion)
HEK-Blue IL-12 reporter assay, fold reduction in EC50 value (fold (vs wild-type)): 6540

IL-12 Fc double mutant Y40A/P127A (format of Example 1) (from UniProt P29459 23-219; P29460 23-328) (Fc fusion)
HEK-Blue IL-12 reporter assay, fold reduction in potency (fold (vs IL-12 Fc w.t.)): 40

IL-12 Fc double mutant Y40A/R129A (Example 7) (from UniProt P29459 23-219; P29460 23-328) (Fc fusion)
HEK-Blue IL-12 reporter assay, fold reduction in EC50 value (fold (vs wild-type)): 44

IL-12 Fc quadruple mutant Y40A/T43A/D126A/P127A (format of Example 1) (from UniProt P29459 23-219; P29460 23-328) (Fc fusion)
HEK-Blue IL-12 reporter assay, fold reduction in potency (fold (vs IL-12 Fc w.t.)): 451

IL-12 Fc triple mutant Y40A/D126A/P127A (format of Example 1) (from UniProt P29459 23-219; P29460 23-328) (Fc fusion)
HEK-Blue IL-12 reporter assay, fold reduction in potency (fold (vs IL-12 Fc w.t.)): 404

Source: patent US20240150422A1
